T1: recombinant GST-Rab19 (UniProt A4D1S5 1-217)
T1 sequence (looked up): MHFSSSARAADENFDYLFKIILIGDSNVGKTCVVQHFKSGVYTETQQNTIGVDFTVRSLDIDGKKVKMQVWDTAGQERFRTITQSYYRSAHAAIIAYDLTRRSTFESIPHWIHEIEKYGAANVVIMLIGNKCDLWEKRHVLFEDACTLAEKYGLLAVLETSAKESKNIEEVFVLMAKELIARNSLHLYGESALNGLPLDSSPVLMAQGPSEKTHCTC

B1: recombinant 6His-TTLL12 (Tubulin Tyrosine Ligase-Like 12) (natural protein, UniProt Q14166 1-644, looked up)
chain: MEAERGPERRPAERSSPGQTPEEGAQALAEFAALHGPALRASGVPERYWGRLLHKLEHEVFDAGEVFGIMQVEEVEEEEDEAAREVRKQQPNPGNELCYKVIVTRESGLQAAHPNSIFLIDHAWTCRVEHARQQLQQVPGLLHRMANLMGIEFHGELPSTEAVALVLEEMWKFNQTYQLAHGTAEEKMPVWYIMDEFGSRIQHADVPSFATAPFFYMPQQVAYTLLWPLRDLDTGEEVTRDFAYGETDPLIRKCMLLPWAPTDMLDLSSCTPEPPAEHYQAILEENKEKLPLDINPVVHPHGHIFKVYTDVQQVASSLTHPRFTLTQSEADADILFNFSHFKDYRKLSQERPGVLLNQFPCENLLTVKDCLASIARRAGGPEGPPWLPRTFNLRTELPQFVSYFQQRERWGEDNHWICKPWNLARSLDTHVTKSLHSIIRHRESTPKVVSKYIESPVLFLREDVGKVKFDIRYIVLLRSVRPLRLFVYDVFWLRFSNRAFALNDLDDYEKHFTVMNYDPDVVLKQVHCEEFIPEFEKQYPEFPWTDVQAEIFRAFTELFQVACAKPPPLGLCDYPSSRAMYAVDLMLKWDNGPDGRRVMQPQILEVNFNPDCERACRYHPTFFNDVFSTLFLDQPGGCHVTCLV

Assays:
[1] = molecular target: recombinant 6His-TTLL12 (Tubulin Tyrosine Ligase-Like 12) (UniProt Q14166); assay: pull-down
recombinant GST-Rab19 = molecular target: T1, recombinant GST-Rab19; assay: pull-down

Molecule	fold increase in tubulin co-precipitation with Ni-beads when TTLL12 is present [1]	fold increase in TTLL12 binding against the GST-only control (recombinant GST-Rab19)
purified porcine brain tubulin (α/β-tubulin heterodimer, kept unpolymerized at 4°C) (from UniProt P02550 1-451; P02554 1-445) (complex)	3 fold	
B1		~5 fold
